Measurements from IntAct's records for PubMed 20059542.

B1: 26S proteasome non-ATPase regulatory subunit 4 homolog (Arabidopsis thaliana (Mouse-ear cress)), P55034 (parent)
chain: MVLEATMICIDNSEWMRNGDYSPSRLQAQTEAVNLLCGAKTQSNPENTVGILTMAGKGVRVLTTPTSDLGKILACMHGLDVGGEINLTAAIQIAQLALKHRQNKNQRQRIIVFAGSPIKYEKKALEIVGKRLKKNSVSLDIVNFGEDDDEEKPQKLEALLTAVNNNDGSHIVHVPSGANALSDVLLSTPVFTGDEGASGYVSAAAAAAAAGGDFDFGVDPNIDPELALALRVSMEEERARQEAAAKKAADEAGQKDKDGDTASASQETVARTTDKNAEPMDEDSALLDQAIAMSVGDVNMSEAADEDQDLALALQMSMSGEESSEATGAGNNLLGNQAFISSVLSSLPGVDPNDPAVKELLASLPDESKRTEEEESSSKKGEDEKK
partner: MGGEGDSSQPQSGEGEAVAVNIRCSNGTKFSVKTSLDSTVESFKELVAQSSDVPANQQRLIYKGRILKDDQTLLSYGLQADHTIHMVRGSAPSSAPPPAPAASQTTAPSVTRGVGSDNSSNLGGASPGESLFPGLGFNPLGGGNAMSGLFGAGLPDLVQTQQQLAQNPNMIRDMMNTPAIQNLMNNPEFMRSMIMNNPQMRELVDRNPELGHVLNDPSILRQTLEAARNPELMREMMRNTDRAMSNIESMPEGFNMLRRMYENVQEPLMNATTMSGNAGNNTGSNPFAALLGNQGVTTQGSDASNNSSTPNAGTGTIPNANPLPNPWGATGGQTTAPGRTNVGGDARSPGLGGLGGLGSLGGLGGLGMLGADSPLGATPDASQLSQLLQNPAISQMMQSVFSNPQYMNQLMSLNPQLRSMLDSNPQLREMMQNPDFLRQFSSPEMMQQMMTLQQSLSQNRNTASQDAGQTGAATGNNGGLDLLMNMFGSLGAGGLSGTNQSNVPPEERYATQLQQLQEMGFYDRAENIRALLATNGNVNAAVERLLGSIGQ
B2: UV excision repair protein RAD23 homolog B (Homo sapiens), P54727 (parent)
chain: MQVTLKTLQQQTFKIDIDPEETVKALKEKIESEKGKDAFPVAGQKLIYAGKILNDDTALKEYKIDEKNFVVVMVTKPKAVSTPAPATTQQSAPASTTAVTSSTTTTVAQAPTPVPALAPTSTPASITPASATASSEPAPASAAKQEKPAEKPAETPVATSPTATDSTSGDSSRSNLFEDATSALVTGQSYENMVTEIMSMGYEREQVIAALRASFNNPDRAVEYLLMGIPGDRESQAVVDPPQAASTGAPQSSAVAAAAATTTATTTTTSSGGHPLEFLRNQPQFQQMRQIIQQNPSLLPALLQQIGRENPQLLQQISQHQEHFIQMLNEPVQEAGGQGGGGGGGSGGIAEAGSGHMNYIQVTPQEKEAIERLKALGFPEGLVIQAYFACEKNENLAANFLLQQNFDED
B3: Ubiquitin domain-containing protein DSK2 (Saccharomyces cerevisiae), P48510 (parent)
chain: MSLNIHIKSGQDKWEVNVAPESTVLQFKEAINKANGIPVANQRLIYSGKILKDDQTVESYHIQDGHSVHLVKSQPKPQTASAAGANNATATGAAAGTGATPNMSSGQSAGFNPLADLTSARYAGYLNMPSADMFGPDGGALNNDSNNQDELLRMMENPIFQSQMNEMLSNPQMLDFMIQSNPQLQAMGPQARQMLQSPMFRQMLTNPDMIRQSMQFARMMDPNAGMGSAGGAASAFPAPGGDAPEEGSNTNTTSSSNTGNNAGTNAGTNAGANTAANPFASLLNPALNPFANAGNAASTGMPAFDPALLASMFQPPVQASQAEDTRPPEERYEHQLRQLNDMGFFDFDRNVAALRRSGGSVQGALDSLLNGDV
partner: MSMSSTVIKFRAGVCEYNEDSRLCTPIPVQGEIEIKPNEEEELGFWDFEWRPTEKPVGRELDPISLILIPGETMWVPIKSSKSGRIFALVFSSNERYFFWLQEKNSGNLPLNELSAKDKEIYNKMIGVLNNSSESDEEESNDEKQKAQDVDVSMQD
B4: 26S proteasome regulatory subunit RPN13 (Saccharomyces cerevisiae), O13563 (parent)
chain: B3 partner
B5: Proteasomal ubiquitin receptor ADRM1 (Homo sapiens), Q16186 (parent)
chain: MTTSGALFPSLVPGSRGASNKYLVEFRAGKMSLKGTTVTPDKRKGLVYIQQTDDSLIHFCWKDRTSGNVEDDLIIFPDDCEFKRVPQCPSGRVYVLKFKAGSKRLFFWMQEPKTDQDEEHCRKVNEYLNNPPMPGALGASGSSGHELSALGGEGGLQSLLGNMSHSQLMQLIGPAGLGGLGGLGALTGPGLASLLGSSGPPGSSSSSSSRSQSAAVTPSSTTSSTRATPAPSAPAAASATSPSPAPSSGNGASTAASPTQPIQLSDLQSILATMNVPAGPAGGQQVDLASVLTPEIMAPILANADVQERLLPYLPSGESLPQTADEIQNTLTSPQFQQALGMFSAALASGQLGPLMCQFGLPAEAVEAANKGDVEAFAKAMQNNAKPEQKEGDTKDKKDEEEDMSLD
B6: 26S proteasome non-ATPase regulatory subunit 4 (Homo sapiens), P55036 (parent)
chain: MVLESTMVCVDNSEYMRNGDFLPTRLQAQQDAVNIVCHSKTRSNPENNVGLITLANDCEVLTTLTPDTGRILSKLHTVQPKGKITFCTGIRVAHLALKHRQGKNHKMRIIAFVGSPVEDNEKDLVKLAKRLKKEKVNVDIINFGEEEVNTEKLTAFVNTLNGKDGTGSHLVTVPPGPSLADALISSPILAGEGGAMLGLGASDFEFGVDPSADPELALALRVSMEEQRQRQEEEARRAAAASAAEAGIATTGTEDSDDALLKMTISQQEFGRTGLPDLSSMTEEEQIAYAMQMSLQGAEFGQAESADIDASSAMDTSEPAKEEDDYDVMQDPEFLQSVLENLPGVDPNNEAIRNAMGSLASQATKDGKKDKKEEDKK

Variants of: B1
Settings: with dsk2b_arath DSK2B

effect of a mutation on the interaction	Variant
with no effect	L286N;L287N;Q289N;A290D;L310N;A311N;L312N;A313D;L314N
with no effect	L286N;L287N;Q289N;A290D
with no effect	L310N;A311N;L312N;A313D;L314N
disrupting interaction strength	L226D;A227D;L228D;A229D;L230D

Variants of: B2
Settings: with ubc_human UBC

effect of a mutation on the interaction	Variant
decreasing interaction strength	M200A;G201A;Y202A

Variants of: B2
Settings: with psmd4_human PSMD4, P55036

effect of a mutation on the interaction	Variant
disrupting interaction	L8A

Variants of: B2
Settings: with ubc_human UBC
Remark: another data set of the same source

effect of a mutation on the interaction	Variant
decreasing interaction strength	L376A;G377A;F378A
disrupting interaction strength	M200A;G201A;Y202A;L376A;G377A;F378A

Variants of: B3
Settings: with rpn13_yeast RPN13, O13563

Variant	effect of a mutation on the interaction
I45A	disrupting interaction strength
V71A	decreasing interaction strength
L44A;I45A	disrupting interaction strength
L70A	decreasing interaction strength

The remaining lines, values ahead:

effect of a mutation on the interaction	Variant
decreasing interaction strength	L70A;V71A
disrupting interaction strength	L44A

Variants of: B3
Settings: with rpn13_yeast RPN13, O13563
Remark: another data set of the same source

effect of a mutation on the interaction	Variant
disrupting interaction	I45A

Variants of: B3
Settings: with rpn13_yeast RPN13, O13563
Remark: another data set of the same source

effect of a mutation on the interaction	Variant
decreasing interaction	V71A

Variants of: B3
Settings: with rpn13_yeast RPN13, O13563
Remark: another data set of the same source

effect of a mutation on the interaction	Variant
decreasing interaction	L70A

Variants of: B3
Settings: with rpn13_yeast RPN13, O13563
Remark: another data set of the same source

effect of a mutation on the interaction	Variant
disrupting interaction	L44A

Variants of: B4
Settings: with dsk2_yeast DSK2, P48510

effect of a mutation on the interaction	Variant
disrupting interaction	F91R

Variants of: B4
Settings: with dsk2_yeast DSK2, P48510
Remark: another data set of the same source

effect of a mutation on the interaction	Variant
decreasing interaction	L43A

Variants of: B4
Settings: with dsk2_yeast DSK2, P48510
Remark: another data set of the same source

effect of a mutation on the interaction	Variant
disrupting interaction	E72Q

Variants of: B5
Settings: with ubql2_human UBQLN2, Q9UHD9

effect of a mutation on the interaction	Variant
disrupting interaction	F98R

Variants of: B5
Settings: with dsk2_yeast DSK2, P48510

effect of a mutation on the interaction	Variant
disrupting interaction	F98R

Variants of: B5
Settings: with ubc_human UBC

effect of a mutation on the interaction	Variant
decreasing interaction strength	F98R

Variants of: B5
Settings: with ubc_human UBC
Remark: another data set of the same source

effect of a mutation on the interaction	Variant
decreasing interaction	F98R

Variants of: B5
Settings: with ubql2_human UBQLN2, Q9UHD9
Remark: another data set of the same source

effect of a mutation on the interaction	Variant
disrupting interaction	F76R

Variants of: B5
Settings: with dsk2_yeast DSK2, P48510
Remark: another data set of the same source

effect of a mutation on the interaction	Variant
disrupting interaction	F76R

Variants of: B5
Settings: with ubc_human UBC
Remark: another data set of the same source

effect of a mutation on the interaction	Variant
decreasing interaction	F76R

Variants of: B5
Settings: with ubql1_human UBQLN1, Q9UMX0

effect of a mutation on the interaction	Variant
decreasing interaction	D79N

Variants of: B5
Settings: with dsk2_yeast DSK2, P48510
Remark: another data set of the same source

effect of a mutation on the interaction	Variant
disrupting interaction	D79N

Variants of: B5
Settings: with ubc_human UBC
Remark: another data set of the same source

effect of a mutation on the interaction	Variant
decreasing interaction	D79N

Variants of: B5
Settings: with ubql2_human UBQLN2, Q9UHD9
Remark: another data set of the same source

effect of a mutation on the interaction	Variant
disrupting interaction	L56A

Variants of: B5
Settings: with dsk2_yeast DSK2, P48510
Remark: another data set of the same source

effect of a mutation on the interaction	Variant
disrupting interaction	L56A

Variants of: B5
Settings: with ubc_human UBC
Remark: another data set of the same source

effect of a mutation on the interaction	Variant
decreasing interaction	L56A

Variants of: B6
Settings: with ubql1_human UBQLN1, Q9UMX0

effect of a mutation on the interaction	Variant
decreasing interaction strength	L216N;A217N;L218N;A219N;L220N
disrupting interaction strength	L216N;A217N;L218N;A219N;L220N;I287N;A288N;Y289N;A290N;M291N
disrupting interaction strength	I287N;A288N;Y289N;A290N;M291N

Variants of: B6
Settings: with ubql2_human UBQLN2, Q9UHD9

effect of a mutation on the interaction	Variant
with no effect	L216N;A217N;L218N;A219N;L220N
disrupting interaction strength	L216N;A217N;L218N;A219N;L220N;I287N;A288N;Y289N;A290N;M291N
disrupting interaction strength	I287N;A288N;Y289N;A290N;M291N

Variants of: B6
Settings: with dsk2_yeast DSK2, P48510

effect of a mutation on the interaction	Variant
disrupting interaction strength	L216N;A217N;L218N;A219N;L220N
disrupting interaction strength	L216N;A217N;L218N;A219N;L220N;I287N;A288N;Y289N;A290N;M291N
with no effect	I287N;A288N;Y289N;A290N;M291N

Variants of: B6
Settings: with rd23b_human RAD23B

effect of a mutation on the interaction	Variant
decreasing interaction strength	L216N;A217N;L218N;A219N;L220N
disrupting interaction strength	L216N;A217N;L218N;A219N;L220N;I287N;A288N;Y289N;A290N;M291N
disrupting interaction strength	I287N;A288N;Y289N;A290N;M291N
